The subject of assay [1] is HSV-1. The assay can be described thus: Quantitative neutralizing activity through indirect immunofluorescence (IIF), InCellAnalyzer count. It counts as cell-based, HSV-1 (HF strain). The conditions noted are these: IgG1 Fab; Vero E6 cells. Here is the method:
(§1) The neutralizing activity of Fabs Ex2, Ex2B, Ex2C, Ex2H and Ex2I was evaluated using the InCellAnalyzer automated count system in order to calculate the IC50s of all Fab and obtain a dose-response curve. Several dilutions of the different Fabs were used in order to obtain the dose-response curve. In all sets of neutralization experiments several Fab dilutions were performed since only using a biological compound limit dilution was possible to obtain the exact amount of Fab able to inhibit viral infection.
(§2) Moreover, the same “dose-response” curve allowed the calculation of Fab IC50 which effectively depicts the in vitro Fab potency. The IC50 is the Fab concentration able to reduce by 50% the cell damage due to the infection of cell monolayer with a standard amount of virus (HSV-1 and HSV-2).
(§3) Quantitative Neutralizing Activity Evaluation Through Indirect Immunofluorescence (IIF) Assay Protocol: […]
(§4) Neutralization activity was then assessed by counting the immunofluorescence infection foci through InCellAnalyzer system.
(§5) The number of infection foci in the cell monolayer infected with viruses treated with the different Fab preparations was compared with the foci counted for the virus control (same virus amount)
(§6) The percentage of neutralization was then evaluated and a standard deviation from the mean was calculated as well (the experiment was performed in triplicate)

Assay [2] relates to HSV-2. The assay can be described thus: Plaque reduction assay. The note with it: due to very high potency. It counts as cell-based, HSV-2 (MS strain). Here is the method:
(§7) Dose-response quantitative assay: the capability of Fab Ex2 to inhibit HSV infection was assessed by evaluating the presence of lysis plaques on cell monolayer due to HSV infection in the presence or in the absence of Fab Ex2. To confirm the IIF neutralization data, a plaque reduction assay was performed as quantitative evaluation.
(§8) Quantitative Neutralizing Activity Evaluation Through Plaque Reduction Assay Protocol:
(§9) 7×10^5 Vero cells/well were seeded in a 6-wells plate and grown in the appropriate complete medium supplemented with 10% FCS. Experiment was performed with cells at 100% confluence.
(§10) HSV-1 and HSV-2 viral stocks dilution (−5 and −4 respectively) were pre-incubated with purified Fab of interest at different concentrations (5, 2.5 and 1 μg/mL) in a final volume of 800 μL of complete DMEM, for 1 h at 37° C. and 5% CO2.
(§11) Experimental controls were added as well.
(§12) After washing the cells with a PBS 1× solution, viral solutions were added to the monolayers and incubated for 2 h at 37° C. and 5% CO2 for adsorption. […]
(§13) Neutralization activity was then assessed by counting the plaque forming units (PFU). In particular, the number of PFU in the cell monolayer infected with Fab-treated viruses was compared with the PFU counted for the virus control (same virus amount).
A general note: Plaques are areas of infected cells; plaque reduction assays count them against a control.

The test system of assay [3] is HSV-2. The assay can be described thus: Quantitative neutralizing activity through indirect immunofluorescence (IIF), InCellAnalyzer count. It counts as cell-based, HSV-2 (MS strain). The conditions noted are these: IgG1 Fab; Vero E6 cells. Here is the method: as §1, §2, §3, §4, §5, §6
Assay [4] concerns HSV-1. The assay is described as follows: Syncytia formation evaluation (qualitative neutralization assay). It counts as cell-based, HSV-1 (HF strain). Here is the method:
(§14) Purified Fabs (Ex2(G2), Ex2B(G2), Ex2C(G2), Ex2H(G2) and Ex2I (G2) were pre-incubated (10 μg/mL) with a standard amount of HSV-1 or HSV-2 isolates. Appropriate experimental controls were also included. The different “infection-mix” was used to infect Vero E6 cells (adsorption 2 hours before change of medium).
(§15) After twenty hours, the cell monolayers were Fixed and Permeabilized with crystal violet containing solution allowing first a qualitative evaluation of Fabs biological activities against both HSV-1 and HSV-2 isolates (procedure described in the Materials and Methods section). The reduction of syncytia formation was assessed by bright field phase contrast optical microscopy. As already stated, this assay allowed a first evaluation of Fab potencies.
(§16) The qualitative assays (described in the Materials and Methods section) were performed on IgG1 format of selected anti-HSV-1 and 2 Fabs (FIG. 11).
(§17) In order to evaluate the potency of Fab Ex2, a qualitative assay using different dilutions was performed. Three different concentrations of Ex2 (10 μg/ml, 5 μg/ml and 2.5 μg/ml) were tested against HSV-1 and 2 through the syncytia formation assay.
(§18) Syncytia Formation Evaluation Through Bright Field Phase Contrast Optical Microscope Protocol: […]
(§19) The reduction of syncytia formation was assessed by bright field phase contrast optical microscope. […]

The subject of assay [5] is HSV-1. The assay is described as follows: Plaque reduction assay. It counts as cell-based, HSV-1 (HF strain). The note with it: 1 μg/mL. Here is the method: as §7, §8, §9, §10, §11, §12, §13
For assay [6], the system named is HSV-2. The assay can be described thus: Syncytia formation evaluation (qualitative neutralization assay). It counts as cell-based, HSV-2 (MS strain). Here is the method: as §14, §15, §16, §17, §18, §19
Assay [7] concerns HSV-1. The assay is described as follows: Cell-to-cell infection inhibition (plaque areas, post-adsorption). The class given is cell-based. The conditions noted are these: Fabs 50 ug/mL, IgGs 25 ug/mL. Here is the method:
(§20) Post post-adsorption assays have been performed in order to evaluate the contribution of IgGA in inhibiting “cell-to-cell” infection by measuring the plaque areas resulting from infected cells treated or untreated with FabA or IgGA.
(§21) Fabs tested in post-adsorption cell-to-cell infection inhibition assays have also been preliminary used at a concentration of 50 and 200 ug/mL against HSV-1 and HSV-2 tested isolates respectively*.
(§22) IgGs tested in post-adsorption “cell-to-cell” infection inhibition assays have also been preliminary used at a concentration of 25 and 100 ug/mL against HSV-1 and HSV-2 tested isolates respectively*.

In assay [8] the test system is HSV-2. The assay is described as above. The conditions noted are these: Fabs 200 ug/mL, IgGs 100 ug/mL. The class given is cell-based. Here is the method: as §20, §21, §22

B1: Ex2: human monoclonal Fab, VH SEQ ID NO.1 and VL SEQ ID NO.2, IgG2 Fab converted to IgG1 (antibody, listed as Homo sapiens, V domains shown)
VH: LESGGGVVQPGRSLRLSCAASGFTFTTFAMHWVRQAPGKGLEWLAFISYDGSNKYYADSVKGRFTISRDNSKNTLYLQMNSLRAEDTSIYYCAREVWNYADYWGQGALVTVSS
VL: ELTQSPGTLSSSPGHRATLSCKASAPLGSNHMAWYQQKPGQAPRLLIYGASTRATGVPARFTGSGSGTDFTLTISSLQPEDFATYYCQQANSFPRTFGQGTKVEIK
modifications: IgG1 constant regions
As for B1, the “HSV-1 (IC50 μg/mL ± CI 95%)” value with HSV-1 [1] was 0.7 (0.44 ± 1.21) μg/mL. Also, the “dose-response effect in HSV-2 plaque neutralization assay” value in the assay with HSV-2 [2] is recorded as “a dose-response effect could not be measured”. In addition, the “HSV-2 (IC50 μg/mL ± CI 95%)” value with HSV-2 [3] is recorded as 0.2 (0.19 ± 0.23) μg/mL. In addition, the “inhibition of cellular disruption and syncytia formation, HSV-1” value in the assay with HSV-1 [4] (10 μg/ml, 5 μg/ml and 2.5 μg/ml, dose-dependent) was “strongly inhibit”. The “neutralizing potency of IgG1 format compared to IgG2 format, HSV-1” value with HSV-1 [4] (IgG1 converted Fabs) is reported as “increased potency”. Moreover, the “HSV-1 plaque formation measured as PFU” value in the assay with HSV-1 [5] was “inhibited”. For the same molecule, in the assay with HSV-2 [6] (10 μg/ml, 5 μg/ml and 2.5 μg/ml, very low concentrations), the “inhibition of HSV-2 infection (syncytia formation assay)” value is given as “completely inhibit”. Also, the “neutralizing potency of IgG1 format compared to IgG2 format, HSV-2” value with HSV-2 [6] (IgG1 converted Fabs) is given as “increased potency”. In the assay on HSV-1 [7], the “inhibition of plaque areas (cell-to-cell infection), HSV-1” value is given as “inhibits”. In addition, the “inhibition of plaque areas (cell-to-cell infection), HSV-2” value in the assay with HSV-2 [8] is recorded as “inhibits”.
